The target in test [1] is T1, N-Term Biotin Nav1.7 (3-1) peptide, mouse (mouse, not fully specified; N-terminal biotin attached via a G4S linker).
T1 construct: Synthetic peptide; also called Mouse Nav1.7 3-1 N-term biotin
T1 peptide: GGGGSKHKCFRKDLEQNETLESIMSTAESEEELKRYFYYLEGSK
In words: SPR, captured antibody, peptide analyte. The method, boiled down: (§1)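 Biacore SPR: antibody captured via Fc on anti-Fc surface, Nav1.7 loop peptides injected as analyte at several concentrations. Double-referenced sensorgrams globally fitted to a 1:1 model; KD = kd/ka, t1/2 = ln2/kd.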
(Surface plasmon resonance follows binding to a sensor surface in real time, without labels.)

Test [2] has as its target T2, Native Nav1.7 (3-1) peptide, human (human).
T2 construct: Synthetic peptide (Celtek), unbiotinylated; also called Human Nav1.7 3-1 native; Nav1.7 3-1 native peptide
T2 peptide: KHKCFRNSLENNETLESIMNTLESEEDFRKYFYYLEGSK
Nature of the test: SPR, captured antibody, peptide analyte. The method, boiled down:
as §1

In test [3] the target is T1, N-Term Biotin Nav1.7 (3-1) peptide, …. Nature of the test: ELISA on coated peptide, antibody 1 ug/ml, OD450 grade. The method, boiled down: (§2)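 Peptides coated at 4 μg/mL in PBS, or biotinylated peptides captured at 0.4 μg/mL on avidin (2 μg/mL). Antibodies at 0.1 and 1.0 μg/mL, 1 h at room temperature, detected with HRP anti-mouse or anti-human IgG and TMB at OD450. Scores at 1 μg/ml: <0.2 −; 0.2–1 +; 1–2 ++; 2–4 +++.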
Background: ELISA stands for enzyme-linked immunosorbent assay.

The target in test [4] is T3, N-Term Biotin-Nav1.7 (3-1) peptide, human (human, not fully specified; N-terminal biotin attached via a G4S linker).
T3 construct: ELISA peptide
T3 peptide: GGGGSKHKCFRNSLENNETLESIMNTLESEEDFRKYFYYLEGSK
The description is as above. The method, boiled down:
as §2

Test [5] deals with T4, N-Term Biotin Nav1.7 (3-1) peptide, mulatta (mulatta (monkey), not fully specified; N-terminal biotin attached via a G4S linker).
T4 construct: Synthetic peptide; also called Mulatta Nav1.7 3-1 N-term biotin; monkey
T4 peptide: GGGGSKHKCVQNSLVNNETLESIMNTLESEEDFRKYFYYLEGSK
The test is described as above. The method, boiled down: as §2

In test [6] the target is T5, Native Nav1.7 (3-1) peptide, rat (rat).
T5 construct: Synthetic peptide; also called Rat Nav1.7 3-1 native
T5 peptide: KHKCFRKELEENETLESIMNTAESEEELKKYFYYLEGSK
Described as above. The method, boiled down:
as §2

B1: H1H1006B (antibody, V domains shown)
VH: EVQLVESGPGLVKSSETLSLKCTVSGGSISSSGYYWGWIRQPPGKGLEWIGSIHRSGSTFYNPSLKSRVTISVDTSKSQFSLRLTSVTAADTSVYFCGRHGRDYYYGMDVWGQGTTVTVSS
VL: DIQMTQSPSSVSASVGDRVTITCRSSQDINNWLVWYQQKPGKAPKVLIYGASRLQSGVPSRFSGSGSGTDFTLTISSLQPEDFATYYCQQANSFPLTFGGGTKVEIKR
notes: Fully human antibody; also called H4H1006B-1
By Kd is commonly meant the constant that tells how readily two partners part at equilibrium. Lower therefore signals tighter binding. In the case of B1, the dissociation constant Kd is 103 nM in test [1] and 16.4 nM in test [2]. Besides, the results for the t1/2 in test [1] and in test [2] were 0.62 min and 3.3 min, respectively. Further, the OD450 in test [3], in test [4], in test [5] and in test [6] was 2 to 4 od in each case.

B2: H1M836N (antibody, V domains shown)
VH: QVQLVESGGGVVQPGRSLRLSCAASGFTFSSYGMHWVRQAPGKGLEWVAVISYDGNNKYYADSVKGRFTISRDNSKNTLYLQMNSLRAEDTAVYYCAKGSAGYALDYWGQGTLVTVSS
VL: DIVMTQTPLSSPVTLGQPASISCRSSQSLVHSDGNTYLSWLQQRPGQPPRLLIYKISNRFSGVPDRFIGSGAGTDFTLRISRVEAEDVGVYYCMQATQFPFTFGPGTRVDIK
Take B2: the Kd in test [2] is 332 nM. For the same molecule, the t1/2 in test [2] was determined as 0.3 min. For the same molecule, the values for the OD450 in test [4], in test [5] and in test [6] were 2 to 4 od, 2 to 4 od and 1 to 2 od, respectively.

B3: H1M879N (antibody, V domains shown)
VH: EVQLVESGGGLVKPGGSLRLSCAASGFTFSSYTIHWVRQAPGKGLEWVSSISSSSSYIYYVDSVKGRFTISRDNAKNSVYLQMNSLRAEDTAVYYCATSSITARGYFDYWGQGTLVTVSS
VL: EIVLTQSPATLSLSPGERVTLSCRASQSVSSYLAWYQQKPGQAPRLLIYDASNRATGIPARFSGSGSGTDFTLTISSLEPEDFAVYYCQQRNIWPPTFGQGTKVEIK
notes: Hybridoma-derived
With B3, the binding result in test [1] is “no binding”. For the same molecule, in test [2], the dissociation constant Kd came to 4.43 nM and the t1/2 came to 3 min. Besides, the OD450 in test [4] was 2 to 4 od. The molecule also yielded an OD450 in test [5] of 2 to 4 od.

B4: H1M797N (antibody, V domains shown)
VH: QVQLVESGGGVVQPGRSLRLSCAASGFTFSSYGMHWVRQAPGKGLEWVAVISYDGNNKHFADSVKGRFTISRDNSKNTLNLQMNSLRAEDRAVYYCARGASGFVLDIWGQGTMVTVSS
VL: DIVMTQTPLSSPVTLGQPASISCRSSQSLVRSDGNTYLSWLQQRPGQPPRLLIYKISNRFSGVPDRFSGSGAGTDFTLKISRVEAEDVGIYFCMQTTQFPFTFGPGTKVDIK
With B4, the Kd in test [1] was 7.4 nM; in test [2], 0.462 nM. Further, the figures for the t1/2 in test [1] and in test [2] were 4.6 min and 16 min, respectively. Further, the OD450 in test [3], in test [4], in test [5] and in test [6] was 2 to 4 od in each case.

B5: H1M801N (antibody, V domains shown)
VH: QVQVVESGGGVVQPGRSLRLSCAASGFTFSNYGMHWVRQAPGKGLEWVTVISYDGSNKNYADSVKGRFTISRDNSKNTLYLQMNSLRAEDTAMYYCARGGSGFAFDIWGQGTMVTVSS
VL: DIVMTQTPLSSPVTLGQPASISCRSSQSLVRSDGNTYLSWLQQRPGQPPRLLIYKISNRFSGVPDRFSGSGAGTDFTLKISRVEADDVGVYYCMQTTQFPFTFGPGTKVDIK
notes: also called H1H801N
In the case of B5, the Kd in test [1] came out at 3.53 nM; in test [2], 3.73 nM. The t1/2 in test [1] came to 4.2 min; in test [2], 4.3 min. Besides, the OD450 in test [3] is 1 to 2 od; in test [4] it was 1 to 2 od; in test [5], 2 to 4 od; in test [6], 1 to 2 od.

The values are drawn from patent US20160024208A1 (Regeneron, published 2016).
